Data from patent publication US20110135645A1.

Key:
[1] = target: HMPV F ectodomain lacking the transmembrane domain (FΔTM), 6xHis-tagged, strain TN/92-4 (genogroup A2) (human metapneumovirus); experiment: SPR (BIAcore 2000), HMPV FΔTM immobilized, 1:1 Langmuir fit
[2] = target: F protein of HMPV genogroup B1 strain (virus in plaque reduction assay) (human metapneumovirus) (UniProt Q6WB98); experiment: cell-based or functional assay
[3] = target: F protein of HMPV genogroup A2 strain (virus in plaque reduction assay) (human metapneumovirus) (UniProt Q6WB98); experiment: cell-based or functional assay
[4] = target: F protein of HMPV genogroup B2 strain (virus in plaque reduction assay) (human metapneumovirus) (UniProt Q6WB98); experiment: cell-based or functional assay
[5] = target: F protein of HMPV genogroup A1 strain (virus in plaque reduction assay) (human metapneumovirus) (UniProt Q6WB98); experiment: cell-based or functional assay

Substance: Fab DSλ7
- Kd [1]: 0.984 nM
- koff [1]: 3.48e-05 s⁻¹
- Neut. Conc. (60% plaque reduction), B1 [2]: 2.4 µg/mL
- Neut. Dilution (60% plaque reduction), B1 (dilution (1:x)) [2]: 488
- Neut. Conc. (60% plaque reduction) [3]: 1.1 µg/mL
- Neut. Conc. (60% plaque reduction), A2 [3]: 1.1 µg/mL
- Neut. Dilution (60% plaque reduction) (dilution (1:x)) [3]: 1110
- Neut. Dilution (60% plaque reduction), A2 (dilution (1:x)) [3]: 1040
- Neut. Dilution (60% plaque reduction), B2 (dilution (1:x)) [4]: < 20
- Neut. Conc. (60% plaque reduction), A1 [5]: 9.8 µg/mL
- Neut. Dilution (60% plaque reduction), A1 (dilution (1:x)) [5]: 120
